Data reported in paper PMC5483177 (Cell reports, 2016).
Where two headings read alike, the source gives them in different places.

B1: CPS-6(H148A) (residues 63-305), His-tagged (enzyme, C. elegans, UniProt Q95NM6 63-305, looked up)
chain: PSRSAEIMKHGYPGFTNVRTYEDFVLSYDYKTRTAHWVCEHLTPERLKHAEGVDRKLCEFKPDITFPQKFLSQNTDYKCSGFDRGALAAAGNHRKSQLAVDQTFYLSNMSPQVGRGFNRDKWNDLEMHCRRVAKKMINSYIITGPLYLPKLEGDGKKYIKYQVIGDNNVAVPTHFFKVALFEVTPGKFELESYILPNAVIEDTVEISKFHVPLDAVERSAGLEIFARLDPKSIVKENGAKKGG
B2: WAH-1 (residues 214 to 700), His-tagged (domain or fragment, C. elegans, UniProt Q9U229 214-700, looked up)
chain: SEQQSMKPSESTEENTTTTSADGLLHCEYVIIGSGTAAYYASLSIRAKQAEAKVLMIGEEPELPYNRPPLSKELWWYGDETSATKLAYTPLSGKKRDIFYEVDGFFVSPEDLPKAVHGGVALLRGRKAVKICEEDKKVILEDGTTIGYDKLLIATGVRPKKEQVFEEASEEAKQKITYFHYPADFKRVERGLADKSVQKVTIIGNGLLASELSYSIKRKYGENVEVHQVFEEKYPAEDILPEHIAQKSIEAIRKGGVDVRAEQKVEGVRKCCKNVVLKLSDGSELRTDLVVVATGEEPNSEIIEASGLKIDEKLGGVRADKCLKVGENVWAAGAIATFEDGVLGARRVSSWENAQISGRLAGENMATAAADGKSEGKAFWYQPSFFTKFAPHLHINAIGKCDSSLETVSVHAEPDKDTPLEKAVVFYKSKEDGSIVGVLLLNVFGPSLDVARRIIDDRKKVDEYKEIAKLFPLYDPVKSDEDDAKSA

Columns and labels:
SEC [1] = molecular target: the molecule itself; assay: SEC
[2] = molecular target: B2; assay: other fluorescence titration
SEC [3] = molecular target: the molecule itself; assay: SEC; remark: listed apart in the source
[4] = molecular target: B1; assay: other fluorescence titration

Row | Binder | stoichiometry N (SEC [1]) | Kd [2] [nM] | stoichiometry N (SEC [3]) | stoichiometry N [4]
1 | B1 | 2 | 69.8 ± 2.8 |  | 
2 | wild-type CPS-6 (residues 63-305), His-tagged (enzyme, C. elegans, UniProt Q95NM6 63-305, looked up) PSRSAEIMKHGYPGFTNVRTYEDFVLSYDYKTRTAHWVCEHLTPERLKHAEGVDRKLCEFKPDITFPQKFLSQNTDYKCSGFDRGHLAAAGNHRKSQLAVDQTFYLSNMSPQVGRGFNRDKWNDLEMHCRRVAKKMINSYIITGPLYLPKLEGDGKKYIKYQVIGDNNVAVPTHFFKVALFEVTPGKFELESYILPNAVIEDTVEISKFHVPLDAVERSAGLEIFARLDPKSIVKENGAKKGG | 2 |  |  | 
3 | B2 |  |  | 2 | 1
